Results taken from publication PMC9482650, “Quantitative fragmentomics allow affinity mapping of interactomes” (Nature Communications, 2022).

T1: APBA2_2, Q99767
T1 sequence (Q99767 654-744, limits assumed, looked up): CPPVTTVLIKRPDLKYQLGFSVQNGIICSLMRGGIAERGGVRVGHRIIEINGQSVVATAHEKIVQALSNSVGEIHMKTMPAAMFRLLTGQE

T2: GRIP1_3, Q9Y3R0
T2 sequence (Q9Y3R0 247-346, limits assumed, looked up): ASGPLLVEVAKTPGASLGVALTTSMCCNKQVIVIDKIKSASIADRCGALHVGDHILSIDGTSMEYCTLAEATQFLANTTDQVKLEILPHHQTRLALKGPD

T3: GRIP1_5, Q9Y3R0
T3 sequence (Q9Y3R0 568-668, limits assumed, looked up): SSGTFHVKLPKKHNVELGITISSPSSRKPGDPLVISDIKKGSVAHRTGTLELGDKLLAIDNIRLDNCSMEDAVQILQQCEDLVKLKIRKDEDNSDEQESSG

T4: PDZRN3_1, Q9UPQ7
T4 sequence (Q9UPQ7 244-349, limits assumed, looked up): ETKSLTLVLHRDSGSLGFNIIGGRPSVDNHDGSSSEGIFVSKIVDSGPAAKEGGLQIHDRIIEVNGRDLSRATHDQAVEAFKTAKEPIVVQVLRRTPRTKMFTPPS

T5: RADIL, Q96JH8
T5 sequence (Q96JH8 971-1071, limits assumed, looked up): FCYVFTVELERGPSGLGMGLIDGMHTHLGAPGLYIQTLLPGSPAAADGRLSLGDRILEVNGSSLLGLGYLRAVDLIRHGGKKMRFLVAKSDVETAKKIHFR

T6: SNTB1, Q13884
T6 sequence (Q13884 107-205, limits assumed, looked up): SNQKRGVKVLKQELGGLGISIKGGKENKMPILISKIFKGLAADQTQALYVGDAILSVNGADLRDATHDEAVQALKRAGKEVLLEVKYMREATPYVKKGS

T7: TX1BP3, O14907
T7 sequence (O14907 10-122, limits assumed, looked up): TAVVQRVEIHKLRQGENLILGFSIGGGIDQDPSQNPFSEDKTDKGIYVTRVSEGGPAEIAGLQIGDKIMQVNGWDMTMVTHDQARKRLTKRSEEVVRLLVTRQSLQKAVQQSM


What was measured:
Test in all cases: holdup assay
Design in all cases: key: below the threshold = too weak to quantify, mostly under pKd 3.1 to 4
Conditions in all cases: plain residues with an end cap or a label only (N-terminal biotin on a linker: ado-ado)
APBA2_2, Q99767 = target: T1, APBA2_2, Q99767
CASK, O14936 = target: CASK, O14936
DLG4_2, P78352 = target: DLG4_2, P78352
DLG4_3, P78352 = target: DLG4_3, P78352
FRMPD3, Q5JV73 = target: FRMPD3, Q5JV73
FRMPD4, Q14CM0 = target: FRMPD4, Q14CM0
GORASP1, Q9BQQ3 = target: GORASP1, Q9BQQ3
GRIP1_3, Q9Y3R0 = target: T2, GRIP1_3, Q9Y3R0
GRIP1_5, Q9Y3R0 = target: T3, GRIP1_5, Q9Y3R0
GRIP2_4, Q9C0E4 = target: GRIP2_4, Q9C0E4
GRIP2_7, Q9C0E4 = target: GRIP2_7, Q9C0E4
IL16_4, Q14005 = target: IL16_4, Q14005
Inadl_1, Q8NI35 = target: Inadl_1, Q8NI35
Inadl_6, Q8NI35 = target: Inadl_6, Q8NI35
LNX1_1, Q8TBB1 = target: LNX1_1, Q8TBB1
LNX1_2, Q8TBB1 = target: LNX1_2, Q8TBB1
LNX1_3, Q8TBB1 = target: LNX1_3, Q8TBB1
MAGI1_1, Q96QZ7 = target: MAGI1_1, Q96QZ7
MAGI1_2, Q96QZ7 = target: MAGI1_2, Q96QZ7
MAGI2_5, Q86UL8 = target: MAGI2_5, Q86UL8
MAGI2_6, Q86UL8 = target: MAGI2_6, Q86UL8
PDZRN3_1, Q9UPQ7 = target: T4, PDZRN3_1, Q9UPQ7
PDZRN4_1, Q6ZMN7 = target: PDZRN4_1, Q6ZMN7
PICK1, Q9NRD5 = target: PICK1, Q9NRD5
RADIL, Q96JH8 = target: T5, RADIL, Q96JH8
SCRIB_2, Q14160 = target: SCRIB_2, Q14160
SCRIB_3, Q14160 = target: SCRIB_3, Q14160
SNTB1, Q13884 = target: T6, SNTB1, Q13884
SNX27, Q96L92 = target: SNX27, Q96L92
TX1BP3, O14907 = target: T7, TX1BP3, O14907

Chain of IL16_4, Q14005 (Q14005 1229-1329): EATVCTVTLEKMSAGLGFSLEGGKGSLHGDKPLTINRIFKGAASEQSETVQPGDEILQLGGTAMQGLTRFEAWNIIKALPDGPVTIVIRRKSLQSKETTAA
Chain of CASK, O14936 (O14936 487-570): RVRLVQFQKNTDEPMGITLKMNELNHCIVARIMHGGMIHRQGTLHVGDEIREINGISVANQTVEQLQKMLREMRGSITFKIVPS
Chain of PDZRN4_1, Q6ZMN7 (Q6ZMN7 213-318): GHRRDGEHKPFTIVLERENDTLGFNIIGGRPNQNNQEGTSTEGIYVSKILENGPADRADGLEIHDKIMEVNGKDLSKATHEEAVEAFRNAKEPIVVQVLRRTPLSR
Chain of MAGI1_1, Q96QZ7 (Q96QZ7 1-106): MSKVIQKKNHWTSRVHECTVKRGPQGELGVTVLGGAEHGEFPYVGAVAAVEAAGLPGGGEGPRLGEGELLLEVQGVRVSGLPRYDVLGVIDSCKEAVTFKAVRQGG
Chain of LNX1_3, Q8TBB1 (Q8TBB1 500-596): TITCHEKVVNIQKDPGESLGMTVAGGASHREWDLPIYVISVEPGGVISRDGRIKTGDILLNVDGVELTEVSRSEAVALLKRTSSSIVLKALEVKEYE
Chain of LNX1_1, Q8TBB1 (Q8TBB1 261-371): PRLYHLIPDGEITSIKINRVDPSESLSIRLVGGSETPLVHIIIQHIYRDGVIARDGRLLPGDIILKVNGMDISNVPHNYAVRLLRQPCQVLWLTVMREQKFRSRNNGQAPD
Chain of LNX1_2, Q8TBB1 (Q8TBB1 371-470): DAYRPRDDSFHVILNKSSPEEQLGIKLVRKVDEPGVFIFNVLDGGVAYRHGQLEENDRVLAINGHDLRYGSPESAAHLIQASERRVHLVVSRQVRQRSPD
Chain of Inadl_1, Q8NI35 (Q8NI35 113-229): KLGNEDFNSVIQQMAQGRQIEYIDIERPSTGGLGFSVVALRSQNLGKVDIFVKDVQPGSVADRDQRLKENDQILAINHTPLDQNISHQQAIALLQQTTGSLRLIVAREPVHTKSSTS
Chain of DLG4_2, P78352 (P78352 155-259): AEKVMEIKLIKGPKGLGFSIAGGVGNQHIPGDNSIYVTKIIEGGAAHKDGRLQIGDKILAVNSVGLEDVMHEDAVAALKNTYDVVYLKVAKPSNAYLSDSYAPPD
Chain of MAGI2_5, Q86UL8 (Q86UL8 915-1017): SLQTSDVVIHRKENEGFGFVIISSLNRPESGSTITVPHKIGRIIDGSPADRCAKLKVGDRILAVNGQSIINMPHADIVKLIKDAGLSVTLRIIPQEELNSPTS
Chain of MAGI2_6, Q86UL8 (Q86UL8 1141-1229): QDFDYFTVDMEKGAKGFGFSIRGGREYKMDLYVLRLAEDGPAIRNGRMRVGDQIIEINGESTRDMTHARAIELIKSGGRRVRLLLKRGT
Chain of FRMPD3, Q5JV73 (Q5JV73 12-100): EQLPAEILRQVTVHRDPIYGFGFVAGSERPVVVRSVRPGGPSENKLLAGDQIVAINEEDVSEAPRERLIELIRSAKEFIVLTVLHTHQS
Chain of GORASP1, Q9BQQ3 (Q9BQQ3 1-208): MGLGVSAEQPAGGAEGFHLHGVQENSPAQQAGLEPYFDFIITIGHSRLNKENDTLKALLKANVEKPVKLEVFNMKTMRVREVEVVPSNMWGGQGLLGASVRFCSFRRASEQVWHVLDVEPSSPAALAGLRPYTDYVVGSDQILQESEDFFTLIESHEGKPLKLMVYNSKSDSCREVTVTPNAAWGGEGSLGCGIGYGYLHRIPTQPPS
Chain of GRIP2_4, Q9C0E4 (Q9C0E4 446-548): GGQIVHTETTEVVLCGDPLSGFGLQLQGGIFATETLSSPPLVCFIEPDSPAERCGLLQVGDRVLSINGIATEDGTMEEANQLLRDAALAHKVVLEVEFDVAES
Chain of GRIP2_7, Q9C0E4 (Q9C0E4 934-1023): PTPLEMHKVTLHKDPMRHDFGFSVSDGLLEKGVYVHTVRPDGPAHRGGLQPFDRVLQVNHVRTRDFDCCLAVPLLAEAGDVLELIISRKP
Chain of MAGI1_2, Q96QZ7 (Q96QZ7 456-580): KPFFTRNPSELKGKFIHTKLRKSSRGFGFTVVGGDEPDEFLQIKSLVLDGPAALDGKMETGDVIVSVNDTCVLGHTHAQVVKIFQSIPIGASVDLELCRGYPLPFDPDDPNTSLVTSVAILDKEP
Chain of DLG4_3, P78352 (P78352 306-403): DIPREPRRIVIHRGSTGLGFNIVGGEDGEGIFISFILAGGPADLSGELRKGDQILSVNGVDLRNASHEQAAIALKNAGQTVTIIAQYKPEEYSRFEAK
Chain of SCRIB_2, Q14160 (Q14160 857-960): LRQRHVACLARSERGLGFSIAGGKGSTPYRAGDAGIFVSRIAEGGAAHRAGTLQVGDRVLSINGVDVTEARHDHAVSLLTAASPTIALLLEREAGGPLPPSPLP
Chain of FRMPD4, Q14CM0 (Q14CM0 67-160): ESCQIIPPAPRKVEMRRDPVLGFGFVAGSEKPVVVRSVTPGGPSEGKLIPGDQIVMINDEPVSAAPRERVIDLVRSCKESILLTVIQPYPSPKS
Chain of SCRIB_3, Q14160 (Q14160 999-1103): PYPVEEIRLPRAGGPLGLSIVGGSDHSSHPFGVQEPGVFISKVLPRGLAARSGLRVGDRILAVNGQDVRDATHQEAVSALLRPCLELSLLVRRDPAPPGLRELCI
Chain of PICK1, Q9NRD5 (Q9NRD5 17-115): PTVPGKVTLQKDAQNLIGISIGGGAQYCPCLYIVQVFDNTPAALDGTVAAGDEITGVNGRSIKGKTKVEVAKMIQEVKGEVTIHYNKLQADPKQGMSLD
Chain of Inadl_6, Q8NI35 (Q8NI35 1058-1167): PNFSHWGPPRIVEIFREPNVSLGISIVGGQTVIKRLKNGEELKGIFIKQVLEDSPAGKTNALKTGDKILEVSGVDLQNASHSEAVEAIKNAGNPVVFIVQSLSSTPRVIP

pKd (APBA2_2, Q99767) | pKd (CASK, O14936) | pKd (DLG4_2, P78352) | pKd (DLG4_3, P78352) | pKd (FRMPD3, Q5JV73) | pKd (FRMPD4, Q14CM0) | pKd (GORASP1, Q9BQQ3) | pKd (GRIP1_3, Q9Y3R0) | pKd (GRIP1_5, Q9Y3R0) | pKd (GRIP2_4, Q9C0E4) | pKd (GRIP2_7, Q9C0E4) | pKd (IL16_4, Q14005) | pKd (Inadl_1, Q8NI35) | pKd (Inadl_6, Q8NI35) | pKd (LNX1_1, Q8TBB1) | pKd (LNX1_2, Q8TBB1) | pKd (LNX1_3, Q8TBB1) | pKd (MAGI1_1, Q96QZ7) | pKd (MAGI1_2, Q96QZ7) | pKd (MAGI2_5, Q86UL8) | also measured | Binder
below the threshold | below the threshold | 3.54 | below the threshold | below the threshold | 4.28 | below the threshold | below the threshold | below the threshold | below the threshold | below the threshold | below the threshold | below the threshold | 4.22 | below the threshold | below the threshold | below the threshold | below the threshold | below the threshold | below the threshold | pKd (MAGI2_6, Q86UL8): 3.88; pKd (PDZRN3_1, Q9UPQ7): 4.67; pKd (PDZRN4_1, Q6ZMN7): 4.83; pKd (PICK1, Q9NRD5): 3.95; pKd (RADIL, Q96JH8): below the threshold; pKd (SCRIB_2, Q14160): below the threshold; pKd (SCRIB_3, Q14160): 4.97; pKd (SNTB1, Q13884): 5.22; pKd (SNX27, Q96L92): 5.65; pKd (TX1BP3, O14907): 3.53 | NLSIEKETKL [ASNSD1, Q9NWL6]
below the threshold | below the threshold | 3.59 | below the threshold | below the threshold | 3.75 | below the threshold | below the threshold | below the threshold | below the threshold | below the threshold | 3.64 | 3.48 | 3.54 | 3.92 | below the threshold | below the threshold | below the threshold | below the threshold | 4.04 | pKd (MAGI2_6, Q86UL8): 3.56; pKd (PDZRN3_1, Q9UPQ7): below the threshold; pKd (PDZRN4_1, Q6ZMN7): below the threshold; pKd (PICK1, Q9NRD5): 4.17; pKd (RADIL, Q96JH8): 3.56; pKd (SCRIB_2, Q14160): 3.83; pKd (SCRIB_3, Q14160): 3.67; pKd (SNTB1, Q13884): below the threshold; pKd (SNX27, Q96L92): 4.6; pKd (TX1BP3, O14907): 4.15 | EVNETDDTKM [KCNJ1, P48048]
below the threshold | below the threshold | 4.55 | below the threshold | below the threshold | below the threshold | below the threshold | below the threshold | below the threshold | below the threshold | below the threshold | below the threshold | below the threshold | 3.71 | below the threshold | below the threshold | below the threshold | below the threshold | below the threshold | 4.13 | pKd (MAGI2_6, Q86UL8): 3.92; pKd (PDZRN3_1, Q9UPQ7): 4.19; pKd (PDZRN4_1, Q6ZMN7): 4.18; pKd (PICK1, Q9NRD5): below the threshold; pKd (RADIL, Q96JH8): below the threshold; pKd (SCRIB_2, Q14160): 4.27; pKd (SCRIB_3, Q14160): 4.88; pKd (SNTB1, Q13884): 5.07; pKd (SNX27, Q96L92): 5.55; pKd (TX1BP3, O14907): below the threshold | SKENVQETQI [LRRC4B, Q9NT99]
3.47 | below the threshold | 3.61 | below the threshold | below the threshold | below the threshold | below the threshold | below the threshold | below the threshold | below the threshold | below the threshold | below the threshold | below the threshold | below the threshold | 3.86 | below the threshold | below the threshold | below the threshold | below the threshold | below the threshold | pKd (MAGI2_6, Q86UL8): 5.05; pKd (PDZRN3_1, Q9UPQ7): below the threshold; pKd (PDZRN4_1, Q6ZMN7): 3.62; pKd (PICK1, Q9NRD5): below the threshold; pKd (RADIL, Q96JH8): below the threshold; pKd (SCRIB_2, Q14160): 4.06; pKd (SCRIB_3, Q14160): 5.1; pKd (SNTB1, Q13884): 4.05; pKd (SNX27, Q96L92): 4.76; pKd (TX1BP3, O14907): 4.9 | SSALYGESDL [ACTN2, P35609]
below the threshold | below the threshold | below the threshold | below the threshold | below the threshold | 4.29 | below the threshold | below the threshold | below the threshold | below the threshold | below the threshold | below the threshold | below the threshold | 3.79 | below the threshold | below the threshold | below the threshold | below the threshold | below the threshold | 3.54 | pKd (MAGI2_6, Q86UL8): 3.59; pKd (PDZRN3_1, Q9UPQ7): 3.8; pKd (PDZRN4_1, Q6ZMN7): 3.64; pKd (PICK1, Q9NRD5): 4.06; pKd (RADIL, Q96JH8): below the threshold; pKd (SCRIB_2, Q14160): below the threshold; pKd (SCRIB_3, Q14160): 4.22; pKd (SNTB1, Q13884): 4.04; pKd (SNX27, Q96L92): 5.47; pKd (TX1BP3, O14907): 3.69 | GQEEQVTTRL [TRPC5, Q9UL62]
